According to patent publication US20170240637A1 (Memorial Sloan Kettering, published 2017):

T1: 2Ig-B7H3-mFc mutant R127A (human, UniProt Q5ZPR3-2 29-248, limits assumed)
T1 construct: not shown: mouse Fc
T1 sequence (looked up): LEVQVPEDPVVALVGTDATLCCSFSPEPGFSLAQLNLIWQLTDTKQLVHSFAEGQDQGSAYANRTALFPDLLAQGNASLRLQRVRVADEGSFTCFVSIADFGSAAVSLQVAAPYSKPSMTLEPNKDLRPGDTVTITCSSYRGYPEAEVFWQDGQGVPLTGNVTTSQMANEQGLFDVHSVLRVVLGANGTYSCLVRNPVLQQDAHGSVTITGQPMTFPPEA

T2: wild type 2Ig-B7H3-mFc (human, UniProt Q5ZPR3-2 29-248, limits assumed)
T2 construct: Q5ZPR3 canonical entry is the 4Ig isoform; the 2Ig form is its shorter isoform; also called 2Ig-B7H3-Fc; WT 2Ig-B7H3-Fc; not shown: mouse Fc
T2 sequence (looked up): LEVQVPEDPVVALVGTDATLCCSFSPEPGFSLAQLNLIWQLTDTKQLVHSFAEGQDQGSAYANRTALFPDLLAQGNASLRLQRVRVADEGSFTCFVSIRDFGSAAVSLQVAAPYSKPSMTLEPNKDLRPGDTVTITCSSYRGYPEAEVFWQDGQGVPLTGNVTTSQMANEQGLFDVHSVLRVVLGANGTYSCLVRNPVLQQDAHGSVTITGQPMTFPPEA

T3: 4Ig-B7H3 (human, UniProt Q5ZPR3 27-461, limits assumed)
T3 construct: also called 4Ig-B73H3
T3 sequence (looked up): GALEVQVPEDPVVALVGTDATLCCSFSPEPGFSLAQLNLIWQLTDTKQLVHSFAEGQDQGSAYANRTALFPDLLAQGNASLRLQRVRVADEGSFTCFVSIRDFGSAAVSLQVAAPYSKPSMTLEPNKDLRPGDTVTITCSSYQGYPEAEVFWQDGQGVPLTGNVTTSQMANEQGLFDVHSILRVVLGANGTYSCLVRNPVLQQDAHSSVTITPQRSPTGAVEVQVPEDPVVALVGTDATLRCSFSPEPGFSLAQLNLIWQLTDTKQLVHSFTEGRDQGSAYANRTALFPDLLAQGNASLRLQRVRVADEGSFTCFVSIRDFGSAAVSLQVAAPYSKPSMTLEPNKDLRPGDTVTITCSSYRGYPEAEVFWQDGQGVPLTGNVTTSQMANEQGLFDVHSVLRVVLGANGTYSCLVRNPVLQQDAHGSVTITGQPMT

T4: 2Ig-B7H3 without Fc fusion (human, UniProt Q5ZPR3-2 29-245, limits assumed)
T4 construct: also called 2IgB7H3 (R&D)
T4 sequence (looked up): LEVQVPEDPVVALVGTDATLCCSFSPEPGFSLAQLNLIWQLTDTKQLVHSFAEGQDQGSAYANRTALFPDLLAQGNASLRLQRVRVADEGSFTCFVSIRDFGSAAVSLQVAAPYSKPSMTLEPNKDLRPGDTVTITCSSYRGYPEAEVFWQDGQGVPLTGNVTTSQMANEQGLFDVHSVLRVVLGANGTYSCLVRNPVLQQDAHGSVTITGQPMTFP

T5: 4Ig-B7H3 fused to mouse Fc (B7H3-mFc) (human, UniProt Q5ZPR3 29-466, limits assumed, biotinylated on primary amines (NHS-biotin) in the experiment of paragraph 316)
T5 construct: Expressed in DG44 CHO cells; also called 4Ig-B7H3-Fc; 4Ig-B7H3-mFc; not shown: mouse Fc
T5 sequence (looked up): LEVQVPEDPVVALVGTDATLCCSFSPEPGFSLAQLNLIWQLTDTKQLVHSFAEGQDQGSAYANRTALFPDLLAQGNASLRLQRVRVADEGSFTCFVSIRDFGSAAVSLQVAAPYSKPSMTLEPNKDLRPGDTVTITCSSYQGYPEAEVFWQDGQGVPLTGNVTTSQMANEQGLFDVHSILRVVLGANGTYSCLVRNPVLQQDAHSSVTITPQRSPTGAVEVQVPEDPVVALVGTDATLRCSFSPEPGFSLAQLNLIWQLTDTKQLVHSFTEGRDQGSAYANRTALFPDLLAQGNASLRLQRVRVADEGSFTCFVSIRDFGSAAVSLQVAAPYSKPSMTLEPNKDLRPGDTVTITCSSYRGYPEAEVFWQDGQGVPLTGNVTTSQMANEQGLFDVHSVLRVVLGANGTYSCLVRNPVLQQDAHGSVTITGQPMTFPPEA


Columns and labels:
[1] = target: T1, 2Ig-B7H3-mFc mutant R127A; experiment: SPR, 400 nM antibody over immobilized R127A mutant
[2] = target: 2Ig-B7H3-mFc mutant D128A (human) (UniProt Q5ZPR3); experiment: SPR, 400 nM antibody over immobilized D128A mutant
wild type 2Ig-B7H3-mFc [3] = target: T2, wild type 2Ig-B7H3-mFc; experiment: SPR, 400 nM antibody over immobilized WT 2Ig-B7H3-mFc
4Ig-B7H3 [4] = target: T3, 4Ig-B7H3; experiment: SPR (Biacore T-100), 4Ig-B7H3 on CM5 chip, scFv injected
Description: (§1) In brief, B7H3 antigen (either 2Ig-B7H3, 4Ig-B7H3, 2Ig-B7H3-mFc, 4Ig-B7H3-mFc), was directly immobilized onto the CM5 sensor chip via […]. Reference surface was set up for nonspecific binding and refractive index changes. For analysis of the kinetics of interactions, varying concentrations of scFvs were injected at flow rate of 30 μl/min using running buffer containing 10 mM HEPES, 150 mM NaCl, 3 mM EDTA, and 0.05% Surfactant P-20 (pH 7.4). The association and dissociation phase data were fitted simultaneously to a 1:1 model by using BIAevaluation 3.2. All the experiments were done at 25° C.

[5] = target: T4, 2Ig-B7H3 without Fc fusion; experiment: ELISA, right panel '2IgB7H3', scFv serially diluted 0.01-10 µg/ml
Description: (§2) B7H3-mFc (100 ng/well) or 2IgB7H3 (R&D, Minneapolis, Minn.) (25 ng/well) were coated on polyvinyl microtiter plates in PBS overnight. Plates were then blocked with 0.5% BSA in PBS at 150 μl per well for 1 h at room temperature. Antibodies were added in triplicates with serial dilution in 0.5% BSA. Following incubation for 1 h at room temperature and washing with PBS, HRP-mouse anti-human Fc antibody, HRP-streptavidin, or HRP-mouse anti-Flag antibody was added. After incubation for 1 h at room temperature and further washing, the color was developed and quantified using an ELISA plate reader at 490 nm.

[6] = target: B7H3 on B7H3-positive human tumor cells (M14, LAN-1, IMR-32, HeLa) (human) (UniProt Q5ZPR3); experiment: cell-based or functional assay
4Ig-B7H3 [7] = target: T3, 4Ig-B7H3; experiment: SPR, IgG on 4Ig-B7-H3 without Fc fusion
Description: (§3) In brief, B7H3 antigen (either 2Ig-B7H3, 4Ig-B7H3, 2Ig-B7H3-mFc, 4Ig-B7H3-mFc), was directly immobilized onto the CM5 sensor chip via […]. Reference surface was set up for nonspecific binding and refractive index changes. […] The association and dissociation phase data were fitted simultaneously to a 1:1 model by using BIAevaluation 3.2. All the experiments were done at 25° C.

[8] = target: T4, 2Ig-B7H3 without Fc fusion; experiment: SPR, IgG on 2Ig-B7-H3 without Fc fusion
Description: as §3

[9] = target: T1, 2Ig-B7H3-mFc mutant R127A; experiment: SPR, IgG over immobilised 2Ig-B7H3-mFc R127A (left panel); antibody concentration not shown
4Ig-B7H3 [10] = target: T3, 4Ig-B7H3; experiment: SPR
[11] = target: T4, 2Ig-B7H3 without Fc fusion; experiment: SPR
wild type 2Ig-B7H3-mFc [12] = target: T2, wild type 2Ig-B7H3-mFc; experiment: SPR, IgG on 2Ig-B7H3-mFc
Description: as §3

[13] = target: T5, 4Ig-B7H3 fused to mouse Fc (B7H3-mFc); experiment: SPR, IgG on 4Ig-B7H3-Fc
Description: as §3

[14] = target: B7H3 on B7H3-positive human tumor cells (M14, LAN-1, IMR-32, HeLa) (human) (UniProt Q5ZPR3); experiment: cell-binding assay of 131I-labelled antibody on LAN-1 cells
wild type 2Ig-B7H3-mFc [15] = target: T2, wild type 2Ig-B7H3-mFc; experiment: SPR, antigen on CM5 chip
Description: as §1

4Ig-B7H3 [16] = target: T3, 4Ig-B7H3; experiment: ELISA titled 'B7H3 ELISA'; legend: 4Ig-B7H3 (the ELISA method coats B7H3-mFc); IgG serially diluted
Description: as §2

[17] = target: T1, 2Ig-B7H3-mFc mutant R127A; experiment: SPR, mutant 2Ig-B7H3-mFc on chip
Description: as §1

[18] = target: T1, 2Ig-B7H3-mFc mutant R127A; experiment: SPR, IgG over immobilised 2Ig-B7H3-mFc R127A (right panel); antibody concentration not shown

| ADCC EC50 (µg/ml), 51Cr release, LAN-1 targets, human PBMC effectors [6] [µg/mL] | Fold change EC50 relative to ch8H9 (ADCC) [6] [fold] | Kd (4Ig-B7H3 [7]) [nM] | koff (4Ig-B7H3 [7]) [s⁻¹] | kon (4Ig-B7H3 [7]) [M⁻¹ s⁻¹] | Kd [8] [nM] | koff [8] [s⁻¹] | kon [8] [M⁻¹ s⁻¹] | Kd (wild type 2Ig-B7H3-mFc [12]) [nM] | koff (wild type 2Ig-B7H3-mFc [12]) [s⁻¹] | kon (wild type 2Ig-B7H3-mFc [12]) [M⁻¹ s⁻¹] | Kd [13] [nM] | koff [13] [s⁻¹] | kon [13] [M⁻¹ s⁻¹] | in vitro immunoreactivity [14] [%] | Molecule | further results |
| --- | --- | --- | --- | --- | --- | --- | --- | --- | --- | --- | --- | --- | --- | --- | --- | --- |
|  |  |  |  |  |  |  |  |  |  |  |  |  |  |  | anti-B7H3 MAb MIH42 (Thermo Scientific Pierce) (antibody) | Relative binding (to WT) [1]: 76.1%; Relative binding (to WT) [2]: 68.8%; Max RU (wild type 2Ig-B7H3-mFc [3]): 2530 RU |
|  |  |  |  |  |  |  |  |  |  |  |  |  |  |  | hu8H9 clone S3.3 scFv (scFv, also called Sort3; not shown: FLAG and His tags) scFv: QVQLVQSGAEVVKPGASVKLSCKTSGYTFTNYDINWVRQRPGQGLEWIGWIFPGDGSTQYNEKFKGKATLTTDTSTSTAYMELSSLRSEDTAVYFCARQTTATWFAYWGQGTLVTVSSGGGGSGGGGSGGGGSEIVMTQSPATLSVSPGERVTLSCRASQSISDYLYWYQQKSHESPRLLIKYASQSISGIPARFSGSGSGSEFTLTINSVEPEDVGVYYCQNGHSFPLTFGQGTKLELKR | Kd (4Ig-B7H3 [4]): 9.85 nM; koff (4Ig-B7H3 [4]): 0.000244 s⁻¹; kon (4Ig-B7H3 [4]): 24800 M⁻¹ s⁻¹; EC50 (read off the curve) [5]: ~0.2 µg/mL |
| 0.31 | 5 | 13 | 0.000298 | 23400 | 5 | 0.000171 | 33900 | 6 | 0.000232 | 38700 | 2 | 0.000114 | 55600 | 54 | hu8H9 3.1 IgG1 (antibody, V domains shown, also called clone 3.1) VH: QVQLVQSGAEVVKPGASVKLSCKTSGYTFTNYDINWVRQRPGQGLEWIGWIFPGDDSTQYNEKFKGKATLTTDTSTSTAYMELSSLRSEDTAVYFCARQTTGTWFAYWGQGTLVTVSS VL: EIVMTQSPATLSVSPGERVTLSCRASQSISDYLYWYQQKSHESPRLLIKYASQSISGIPARFSGSGSGSEFTLTINSVEPEDVGVYYCQNGHSFPLTFGQGTKLELKR | binding result [9]: no binding; fold enhancement in affinity against parental hu8H9 H3L3 (4Ig-B7H3 [10]): 2.5 to 9 fold; fold enhancement in affinity against parental hu8H9 H3L3 [11]: 2.5 to 9 fold |
|  |  | 7.7 | 0.000218 | 28300 | 2.7 | 8.73e-05 | 32100 | 0.76 | 3.79e-05 | 49600 | 1.2 | 5.49e-05 | 44800 |  | mouse/human chimeric 8H9 (ch8H9) IgG1 (antibody, V domains shown) VH: QVQLQQSGAELVKPGASVKLSCKASGYTFTNYDINWVRQRPEQGLEWIGWIFPGDGSTQYNEKFKGKATLTTDTSSSTAYMQLSRLTSEDSAVYFCARQTTATWFAYWGQGTLVTVSA VL: DIVMTQSPATLSVTPGDRVSLSCRASQSISDYLHWYQQKSHESPRLLIKYASQSISGIPSRFSGSGSGSDFTLSINSVEPEDVGVYYCQNGHSFPLTFGAGTKLELKR | Kd (wild type 2Ig-B7H3-mFc [15]): 0.74 nM; koff (wild type 2Ig-B7H3-mFc [15]): 3.51e-05 s⁻¹; kon (wild type 2Ig-B7H3-mFc [15]): 47400 M⁻¹ s⁻¹; EC50 (read off the curve) (4Ig-B7H3 [16]): ~0.005 µg/mL; binding result [17]: no binding (tested: 400 nM) |
| 0.1 | 14 | 3.7 | 0.000123 | 33500 | 0.62 | 4.25e-05 | 68900 |  |  |  |  |  |  | 73 | ch8H9 6.1 IgG (ch8H9 + 6 affinity maturation mutations) (antibody, V domains shown) VH: QVQLQQSGAELVKPGASVKLSCKTSGYTFTNYDINWVRQRPGQGLEWIGWIFPGDDSTQYNEKFKGKATLTTDTSSSTAYMQLSRLTSEDSAVYFCARQTTGTWFAYWGQGTLVTVSA VL: DIVMTQSPATLSVTPGDRVTLSCRASQSISDYLYWYQQKSHESPRLLIKYASQSISGIPSRFSGSGSGSDFTLSINSVEPEDVGVYYCQNGHSFPLTFGAGTKLELKR | fold enhancement in binding relative to ch8H9 (4Ig-B7H3 [10]): 2 to 4 fold; fold enhancement in binding relative to ch8H9 [11]: 2 to 4 fold |
| 0.16 | 9 |  |  |  |  |  |  | 0.82 | 5.59e-05 | 67800 | 1.3 | 7.08e-05 | 59200 |  | hu8H9 5.1 IgG1 (antibody, V domains shown, also called clone 5.1) VH: QVQLVQSGAEVVKPGASVKVSCKTSGYTFTNYDINWVRQRPGQGLEWIGWIFPGDDSTQYNEKFKGRVTMTTDTSTSTVYMELSSLRSEDTAVYFCARQTTGTWFAYWGQGTLVTVSS VL: EIVMTQSPATLSVSPGERVTLSCRASQSISDYLYWYQQKSHQAPRLLIKYASQSISGIPARFSGSGSGSEFTLTISSLQPEDFGVYYCQNGHSFPLTFGQGTKLELKR | binding result [18]: no binding |
